Assay results: publication PMC7966745, “Elucidation of transient protein-protein interactions within carrier protein-dependent biosynthesis” (Communications Biology, 2021)

B1: octanoyl-AcpP (15N-C8-AcpP), E. coli acyl carrier protein (natural protein)
chain: STIEERVKKIIGEQLGVKQEEVTNNASFVEDLGADSLDTVELVMALEEEFDTEIPDEEAEKITTVQAAIDYINGHQA
modifications: octanoyl pantethenamide probe loaded as a 4'-phosphopantetheine analog (amide linked octanoyl) on S36; uniformly 15N labeled and perdeuterated
notes: Acyl carrier protein AcpP of E. coli; Grown on a His-tagged pET-22b vector; also called amide linked octanoyl AcpP; source: E. coli BL21 (DE3), M9 minimal media with 15N NH4Cl and D2O, purified; made apo with ACPH, then loaded with an octanoyl pantethenamide probe (CoaA, CoaD, CoaE, Sfp)
B2: octanoyl-AcpP (C8-AcpP), E. coli acyl carrier protein (natural protein)
chain: STIEERVKKIIGEQLGVKQEEVTNNASFVEDLGADSLDTVELVMALEEEFDTEIPDEEAEKITTVQAAIDYINGHQA
modifications: octanoyl pantethenamide probe loaded (stable C8 acyl analog); uniformly 15N labeled and perdeuterated
notes: acyl carrier protein AcpP, E. coli; PDB 2FAD is heptanoyl-AcpP, used for docking only; also called 15N-C8-AcpP; source: E. coli BL21 (DE3), M9 minimal media with 15N NH4Cl and D2O, purified; made apo with P. aeruginosa ACPH, then loaded with CoaA, CoaD, CoaE and Sfp
B4: FabG, E. coli ketoreductase (enzyme)
chain: MNFEGKIALVTGASRGIGRAIAETLAARGAKVIGTATSENGAQAISDYLGANGKGLMLNVTDPASIESVLEKIRAEFGEVDILVNNAGITRDNLLMRMKDEEWNDIIETNLSSVFRLSKAVMRAMMKKRHGRIITIGSVVGTMGNGGQANYAAAKAGLIGFSKSLAREVASRGITVNVVAPGFIETDMTRALSDDQRAGILAQVPAGRLGGAQEIANAVAFLASDEAAYITGETLHVNGGMYMV
notes: ketoreductase FabG (3-oxoacyl-ACP reductase), E. coli; Titrated with 0.5 mM NAD+ present; also called KR; source: E. coli BL21 (DE3), purified (Ni-IMAC, Superdex 75)
B5: FabI, enoylreductase of E. coli fatty acid biosynthesis (enzyme)
chain: MGFLSGKRILVTGVASKLSIAYGIAQAMHREGAELAFTYQNDKLKGRVEEFAAQLGSDIVLQCDVAEDASIDTMFAELGKVWPKFDGFVHSIGFAPGDQLDGDYVNAVTREGFKIAHDISSYSFVAMAKACRSMLNPGSALLTLSYLGAERAIPNYNVMGLAKASLEANVRYMANAMGPEGVRVNAISAGPIRTLAASGIKDFRKMLAHCEAVTPIRRTVTIEDVGNSAAFLCSDLSAGISGEVVHVDGGFSIAAMNELELK
notes: FabI enoyl-ACP reductase, E. coli; titrated with 0.5 mM NAD+ in the buffer; also called ER; source: E. coli BL21 (DE3), purified (Ni-IMAC, Superdex 75)
B6: FabI, E. coli enoylreductase (enzyme)
chain: MGFLSGKRILVTGVASKLSIAYGIAQAMHREGAELAFTYQNDKLKGRVEEFAAQLGSDIVLQCDVAEDASIDTMFAELGKVWPKFDGFVHSIGFAPGDQLDGDYVNAVTREGFKIAHDISSYSFVAMAKACRSMLNPGSALLTLSYLGAERAIPNYNVMGLAKASLEANVRYMANAMGPEGVRVNAISAGPIRTLAASGIKDFRKMLAHCEAVTPIRRTVTIEDVGNSAAFLCSDLSAGISGEVVHVDGGFSIAAMNELELK
notes: enoylreductase FabI (enoyl-ACP reductase [NADH]), E. coli; Titrated with 0.5 mM NAD+ present; also called ER; source: E. coli BL21 (DE3), purified (Ni-IMAC, Superdex 75)
B7: FabF, elongating ketosynthase of E. coli fatty acid biosynthesis (enzyme)
chain: SKRRVVVTGLGMLSPVGNTVESTWKALLAGQSGISLIDHFDTSAYATKFAGLVKDFNCEDIISRKEQRKMDAFIQYGIVAGVQAMQDSGLEITEENATRIGAAIGSGIGGLGLIEENHTSLMNGGPRKISPFFVPSTIVNMVAGHLTIMYGLRGPSISIATACTSGVHNIGHAARIIAYGDADVMVAGGAEKASTPLGVGGFGAARALSTRNDNPQAASRPWDKERDGFVLGDGAGMLVLEEYEHAKKRGAKIYAELVGFGMSSDAYHMTSPPENGAGAALAMANALRDAGIEASQIGYVNAHGTSTPAGDKAEAQAVKTIFGEAASRVLVSSTKSMTGHLLGAAGAVESIYSILALRDQAVPPTINLDNPDEGCDLDFVPHEARQVSGMEYTLCNSFGFGGTNGSLIFKKI
notes: FabF ketosynthase (3-oxoacyl-ACP synthase 2), E. coli; also called KS; source: E. coli BL21 (DE3), purified (Ni-IMAC, Superdex 75)

Assays:
FabB (Escherichia coli) = FabB (Escherichia coli) (UniProt P0A953); assay: NMR titration (TITAN); details: cited from earlier work
FabB (Escherichia coli), sequence (P0A953 whole entry): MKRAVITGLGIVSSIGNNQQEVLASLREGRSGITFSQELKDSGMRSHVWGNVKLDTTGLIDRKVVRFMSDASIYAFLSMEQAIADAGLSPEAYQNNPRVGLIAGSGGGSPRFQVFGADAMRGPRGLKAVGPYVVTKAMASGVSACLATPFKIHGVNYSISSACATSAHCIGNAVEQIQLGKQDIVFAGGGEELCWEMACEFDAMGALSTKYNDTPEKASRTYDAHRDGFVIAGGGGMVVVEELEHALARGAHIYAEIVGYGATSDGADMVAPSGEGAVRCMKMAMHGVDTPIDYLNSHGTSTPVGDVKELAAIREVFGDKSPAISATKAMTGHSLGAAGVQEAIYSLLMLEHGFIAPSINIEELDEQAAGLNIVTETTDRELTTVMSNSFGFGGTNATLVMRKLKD

[1] = biological target: B5; assay: NMR titration; 1H-15N HSQC of perdeuterated 15N-C8-AcpP with increasing unlabeled partner protein, five points; TITAN 2D lineshape analysis, flexible stoichiometry model, error from 300 bootstrap steps; 37 °C, 10 mM potassium phosphate pH 7.4, 0.5 mM TCEP, 0.5 mM NAD+, 0.1% NaN3; details: both partners purified
[2] = biological target: T1, TesA, E. coli thioesterase (E. coli, UniProt P0ADA1 27-208); assay: NMR titration; 1H-15N HSQC of perdeuterated 15N-C8-AcpP with increasing unlabeled partner protein, five points; TITAN 2D lineshape analysis, flexible stoichiometry model, error from 300 bootstrap steps; 37 °C, 10 mM potassium phosphate pH 7.4, 0.5 mM TCEP, 0.1% NaN3; details: both partners purified
T1 construct: TesA thioesterase 1, E. coli; the natural protein is periplasmic; source: E. coli BL21 (DE3), purified (Ni-IMAC, Superdex 75)
T1 sequence: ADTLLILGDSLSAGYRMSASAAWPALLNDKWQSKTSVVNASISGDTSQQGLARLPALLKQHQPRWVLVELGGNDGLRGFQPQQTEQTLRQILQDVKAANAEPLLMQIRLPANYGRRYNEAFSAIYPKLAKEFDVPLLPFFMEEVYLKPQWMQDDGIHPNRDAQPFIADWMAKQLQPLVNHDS

[3] = biological target: B7; assay: as above; details: both partners purified
[4] = biological target: B4; assay: NMR titration; 1H-15N HSQC of 15N, perdeuterated C8-AcpP titrated with unlabeled partner, at least five points; 37 °C; 10 mM potassium phosphate pH 7.4, 0.5 mM TCEP, 0.5 mM NAD+, 0.1% NaN3; TITAN 2D lineshape analysis, flexible stoichiometry model; details: both partners purified
[5] = biological target: B6; assay: as above; details: both partners purified
[6] = biological target: T2, FabF, E. coli elongating ketosynthase (E. coli, UniProt P0AAI5 2-413); assay: NMR titration; 1H-15N HSQC of 15N, perdeuterated C8-AcpP titrated with unlabeled partner, at least five points; 37 °C; 10 mM potassium phosphate pH 7.4, 0.5 mM TCEP, 0.1% NaN3; TITAN 2D lineshape analysis, flexible stoichiometry model; details: both partners purified
T2 construct: ketosynthase FabF (3-oxoacyl-ACP synthase 2), E. coli; also called KS; source: E. coli BL21 (DE3), purified (Ni-IMAC, Superdex 75)
T2 sequence: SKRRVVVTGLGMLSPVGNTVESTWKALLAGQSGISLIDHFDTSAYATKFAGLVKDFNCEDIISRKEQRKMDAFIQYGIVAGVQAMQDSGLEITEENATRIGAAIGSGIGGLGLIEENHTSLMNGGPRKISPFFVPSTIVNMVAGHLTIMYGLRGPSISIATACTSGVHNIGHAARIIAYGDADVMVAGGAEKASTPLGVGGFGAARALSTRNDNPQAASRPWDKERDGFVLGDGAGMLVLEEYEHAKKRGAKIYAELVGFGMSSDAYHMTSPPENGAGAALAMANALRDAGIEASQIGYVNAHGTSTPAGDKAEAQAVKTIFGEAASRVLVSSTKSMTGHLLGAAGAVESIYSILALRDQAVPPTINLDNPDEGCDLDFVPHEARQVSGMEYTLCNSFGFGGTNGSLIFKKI

[7] = biological target: T3, TesA, E. coli thioesterase (E. coli, UniProt P0ADA1 27-208); assay: as above; details: both partners purified
T3 construct: thioesterase TesA (thioesterase 1), E. coli; source: E. coli BL21 (DE3), purified (Ni-IMAC, Superdex 75)
T3 sequence: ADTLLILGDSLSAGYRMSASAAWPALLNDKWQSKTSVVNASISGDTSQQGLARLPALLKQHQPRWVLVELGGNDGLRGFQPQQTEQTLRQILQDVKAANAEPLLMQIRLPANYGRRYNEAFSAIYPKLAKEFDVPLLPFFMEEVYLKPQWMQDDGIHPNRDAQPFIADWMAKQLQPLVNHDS

[8] = biological target: B1; assay: NMR titration; 1H-15N HSQC of perdeuterated 15N-C8-AcpP with increasing unlabeled partner protein, five points; TITAN 2D lineshape analysis, flexible stoichiometry model, error from 300 bootstrap steps; 37 °C, 10 mM potassium phosphate pH 7.4, 0.5 mM TCEP, 0.5 mM NAD+, 0.1% NaN3; details: both partners purified
[9] = biological target: B2; assay: NMR titration; 1H-15N HSQC of 15N, perdeuterated C8-AcpP titrated with unlabeled partner, at least five points; 37 °C; 10 mM potassium phosphate pH 7.4, 0.5 mM TCEP, 0.5 mM NAD+, 0.1% NaN3; TITAN 2D lineshape analysis, flexible stoichiometry model; details: both partners purified
[10] = biological target: B1; assay: NMR titration; 1H-15N HSQC of perdeuterated 15N-C8-AcpP with increasing unlabeled partner protein, five points; TITAN 2D lineshape analysis, flexible stoichiometry model, error from 300 bootstrap steps; 37 °C, 10 mM potassium phosphate pH 7.4, 0.5 mM TCEP, 0.1% NaN3; details: both partners purified

Molecule: AcpP (from UniProt P0A6A8)
- Kd (FabB (Escherichia coli)): 37.6 µM

Molecule: B1
- Kd [1]: 1.6 µM
- koff [1]: 6360 s⁻¹
- Kd [2]: 13 µM
- koff [2]: 9750 s⁻¹
- Kd [3]: 6.9 µM
- koff [3]: 3350 s⁻¹

Molecule: B2
- Kd [4]: 52.3 µM
- koff [4]: 3560 s⁻¹
- Kd [5]: 1.7 µM
- koff [5]: 8500 s⁻¹
- Kd [6]: 8.3 µM
- koff [6]: 3510 s⁻¹
- Kd [7]: 12.5 µM
- koff [7]: 9720 s⁻¹

B3: FabG, ketoreductase of E. coli fatty acid biosynthesis (enzyme)
chain: MNFEGKIALVTGASRGIGRAIAETLAARGAKVIGTATSENGAQAISDYLGANGKGLMLNVTDPASIESVLEKIRAEFGEVDILVNNAGITRDNLLMRMKDEEWNDIIETNLSSVFRLSKAVMRAMMKKRHGRIITIGSVVGTMGNGGQANYAAAKAGLIGFSKSLAREVASRGITVNVVAPGFIETDMTRALSDDQRAGILAQVPAGRLGGAQEIANAVAFLASDEAAYITGETLHVNGGMYMV
notes: FabG 3-oxoacyl-ACP reductase, E. coli; titrated with 0.5 mM NAD+ in the buffer; also called KR; source: E. coli BL21 (DE3), purified (Ni-IMAC, Superdex 75)
- stoichiometry N [8]: 2.2

Molecule: B4
- stoichiometry N [9]: 2

Molecule: B5
- stoichiometry N [8]: 1.2

Molecule: B6
- stoichiometry N [9]: ~1

Molecule: B7
- stoichiometry N [10]: 1.3
